In a protein production outcome set (Wang et al. 2014):

Experiment: label from the status in PepcDB records
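Further: failed if final PepcDB status was selected cloned or expressed and not failed if soluble or beyond.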

Sequence	protein production
MASRFSRVVLVLIDALRFDFAQPQHSHVPREPPVSLPFLGKLSSLQRILEIQPHHARLYRSQVDPPTTTMQRLKALTTGSLPTFIDAGSNFASHAIVEDNLIKQLTSAGRRVVFMGDDTWKDLFPGAFSKAFFFPSFNVRDLDTVDNGILEHLYPTMDSGEWDVLIAHFLGVDHCGHKHGPHHPEMAKKLSQMDQVIQGLVERLENDTLLVVAGDHGMTTNGDHGGDSELEVSAALFLYSPTAVFPSTPPEEPEVIPQVSLVPTLALLLGLPIPFGNIGEVMAELFSGGEDSQPHSSALAQASALHLNAQQVSRFLHTYSAATQDLQAKELHQLQNLFSKASADYQWLLQSPRAEATLPTVIAELQQFLRGARAMCIESWARFSLVRMAGGTALLAASCFICLLASQWAISPGFPFCPLLLTPVAWGLVGAIAYAGLLGTIELKLDLVLLGAVAAVSSFLPFLWKAWAGWGSKRPLATLFPIPGPVLLLLLFRLAVFFSDSFVVAEARATPFLLGSFILLLVVQLHWEGQLLPPKLLTMPRLGTSATTNPPRHNGAYALRLGIGLLLCTRLAGLFHRCPEETPVCHSSPWLSPLASMVGGRAKNLWYGACVAALVALLAAVRLWLRRYGNLKSPEPPMLFVRWGLPLMALGTAAYWALASGADEAPPRLRVLVSGASMVLPRAVAGLAASGLALLLWKPVTVLVKAGAGAPRTRTVLTPFSGPPTSQADLDYVVPQIYRHMQEEFRGRLERTKSQGPLTVAAYQLGSVYSAAMVTALTLLAFPLLLLHAERISLVFLLLFLQSFLLLHLLAAGIPVTTPGPFTVPWQAVSAWALMATQTFYSTGHQPVFPAIHWHAAFVGFPEGHGSCTWLPALLVGANTFASHLLFAVGCPLLLLWPFLCESQGLRKRQQPPGNEADARVRPEEEEEPLMEMRLRDAPQHFYAALLQLGLKYLFILGIQILACALAASILRRHLMVWKVFAPKFIFEAVGFIVSSVGLLLGIALVMRVDGAVSSWFRQLFLAQQR	failed
MKAYPYIFLLLISSSLAASQEDKLYEAARSALNDNKYSEALIHVKNILKISPEHLASNILIAEILLADGSASAAEASLTKAVSLGANKKQLRLLFAESYIMQGQYNKTLDYLPEQTNDDKLAAKIYVLRGDAHLGLRQLKLSQNDYNTALAFDAKNIDAKLGLAQIAVNYFQFHQAEKLVDEVLSGYIPPIKAWNLKASIQQSLGNNELALNAINQALLIDKNNIQSLIFASTINIELQQFELAEKYADTVLEQVPNEPKAEFIKAMVQVRKNENAGFESAIETVAQVLDHLSEDVLRSNPSYYYLASIILFHQQKHEAARQYIDDYLLIDENNINALTLAATIELVEKKPMQAKTLLSRANFLDPDNPKILSMLGMTYLELRQYEKAHFYLAKVKELKPNLGIADTQLAQSYLATGKPEKAIKHLLTASAAEYDPTVVGLLLVESYIKSGKMNKGISVAKNLAENMPDNANIQHHLGYIYQISGEIEKAKHQFEQALIIEPNHAKSIISLANLDYQKGNADIAIDRLKAALIISANDIDLITALAKFYNRTNNSAASVILLEEPFKLDNQNEELLKNLIVSYVGDKQLMLAIETLNTYLLNQRKTVELYLMLASLQIMNSDVNSAVSAYKSAIKQDGDKGTIYLLIAHAYQRFSKVPEAITAYKKSMAWDGDNDKAIIGLAQLYNAENDTDSAIKLIKSFEVNHQLSAQLVEVLANSYLRINQYKLAEMYYKKRIKLASNDSSVVGLNLIYRATKRTSKAVDLLTTSLNDRPNSLFLNTALAELYIDQSQWLNADKIYQTLVQLYPKQPAILNNASYVALNLSDYPRAEALVKRSLALVDNQPDSLDTLGWVYYHTKEFNKALPLFRKALAINNSNPAVKYHLALTLKALNRDKEAIKLMVDVVNSDYSQKADADVLLKQWLK	failed
MAFLDKIKSAVIAEWHTHKILPSLTAAQAILESGWGKYAPHNALFGIKADSSWTGKSFNTKTQEEYQPGIVTDIVDRFRAYDSWEDSIADHGQFLVDNPRYKAVIGEADYKKACHAIKDAGYATASGYAELLIQLIEENNLQEWDAEAIKNKEEQMISSQCREVIEFFINLANAGVGVDKDSFAGWQCADVPCYAAKHWFGVDLWGNAIDLLDSAAAVGWEVHRMPTDANPRTGAFFVQSVPCHQFGHTGIVIEDSDGYTMRTVEQNIDGNPDALYVGAPARFNTRDFTGVLGWFYPPYQGDIVTQPVSTEPQNSDTIVETPKTGTFTLDVAEINIRRWPSLASEVVGSYKQGDTVSFDSEGYANGYYWISYVGGLGMRNYLAIGQTDKDGNRISIWGKLN	failed
MAKLHITTWGCQMNEYDSSKMADLLNSTHGLELTDKPEEADILLLNTCSIREKAQEKVFSQLGRWKNWKKDKPDLIIGVGGCVASQEGEHIRERAPFVDIVFGPQTLHRLPEMINQIRSGDRAVVDISFPEIEKFDRLPEPKAEGPTAFVSIMEGCNKYCSFCVVPYTRGEEVSRPVDDVLFEIAQLAEQGVREVNLLGQNVNAYRGETFDGGICTFAELLRLVAAIDGIDRLRYTTSHPIEFTDDIIEVYRDTPELVSFLHLPIQSGADRVLTMMKRNHTALEYKAIIRKLRAVRPNIQISSDFIVGFPGETAEDFEQTMKIIEQVNFDMSFSFIYSARPGTPASDLPDDVSENEKKDRLAHLQQRINHQAMQFSRLMLGTEQRILVEGPSKKDIMELTGRTETNRVVNFIGTPNMIGKFVDIKITDVYSNSLRGEVIRTEDQMGLRIVESASSVIARTRKEDDLGVGKYAVNLLEHHHHHH	failed
MTTVIVANDLVGFGKVALTSSLLPIMSACQTEVLPLPTVLLSSHTGEFDNIYVRYLTVDMQGFCGQWKRLDFRVDGLVGGYFKSEEELGLVSQCLTKKRFLFLLDPIMGDNGRLYQGFDRDYVEAMKDFCQQADVIIPNLTEAALLTGSPYLEEGSYDMTTIENLLRNLSRLGPRKVILTGISFETEKIGLAYFDKETNQVIYRMRKRYQSHFYGSGDLLTAILSAGYFHNLDFLKVCDLALDFLNKVLLFTLSSGRPLKYGLCYEPLYRLFILEHHHHHH	not failed
VPSLATAIGSSGDRPAALAELIGIIQNDGIRLPPVRIDSLHFAADTPYDTELIINPELGQRVLPSEVATAMREALSQVVDGGTAKRVQGTFKMQDGSVLAMGGKTGTGDNRIESIGAGGRILSSRAINRTATFVFYIGDNHFGALTAFVPGRAAEGFRFTSALPVQVLKGMAPILTPYLENHGQAMCNAPLADPPTGA	failed
MVSTLGSDTFTSISAHDLHGKLGNIHLIDVRENDDFKEGHIPTSRNIPMDILLKEPEKYINKTDEYYIVCQAGVKSEKTCKELWSKGYKVINIKDGTDSYKQPLER	failed
MKTPTSRPVVLCLSGHDPSGGAGLQADIEALLAQGCHAAPAVTALTVQDTVNVSDFRVLDREWVLAQANAVLADLPVAAVKLGMLGSLEMVDTVAEILAAHPHLPVVCDPVLRAGGGGALGKGDVGFAMRERLLPRATIATPNLPEARLLADLPEGSADQCAERLLEHCEHLLITGGHGDESEVHNRLYSRDGSRRTFTCQRLPGSYHGSGCTLASALAGRIALGEALHGAVQSALDYTWRTLRDAESPGHGQYVPRRLPTDFCH	failed
MTPNNIVSRTEMDNGIQGFYKDKVVFLTGATGFLGKVIIEKLLRTTEVKRIYAMMRPKRGKDIQERLAIWQKDPLFEVLLKAKPDALKRIFVIAGDCLDPDLGINRSDRKLLVSEVHIVIHGAATVRFNEPLHVALAINTRGTRLMLQLAKEMLQLEAYLHISTAFSNCVIFRIEEKFYPEHLTCDANSVLAMSELLSEQMMDKLAPTLVGNFPNTYTYTKALAEDVVLREFGDLPLSIFRPSVIIATHEEPVSGWIDNLYGPIAHIYGVSHGVLRLTTYDKDGYASLVPVDYCANAALASIWQTSKDKSQRNAISQPAIYTLAPSEKNLLLNTDFIKHSLIHRNDFPLTKMIWYPFVHNISNPRIFPLAAFFYHTLPGYFYDLALRLSGRKPRLVKLYRSIHANIAVLEHFMNNSWHFETKSTDRLRVMMSPEDRRLYNFDMETLDWKEYFRKALFGMRLYLTKEPPTQESLEQGRRLFYRWLLIVDACQVIYLI	failed
MHIKYLWMCDCGGKKSQGVKWLPFILILVIAAGLWQLTPPSGLSAPAWHSAIIFVATIASIVAKVLPIGAVGIIGITVFALAYAAGDKTASGAITTALSELNSSLIWLIVVAFMIARGFIKTGLGRRIALQMIRLLGKRTLGLAYGLAFADLILSPAMPSNTARCGGVIYPIADSLARSFDSHPEDESRSKIGTFLITCIGNVNDVTAALFMTGYTGNLLAVKLAANAGVTLSWGSWFIAALLPCLVSFLIVPLLVYWLTRPEIKHTPDAPDLARKELAQMGSMTRGEWLMLATVGVLLVLWIFGSSLGVDATTASFVGLSILLLSGVLTWEDVKSEKGAWDTLIWFAALLMMANQLKKLGFTSWFGNLIGDSIGSTMHGTSWIIILLLLNAAYFYTHYFFASGNAQIAALYAVFLGVGLHLNIPAAPMALMLAFTSSLYCSLTQYTHARGPILFGAGYVPTGVWWRTGFIISLFNQAVFLTVGLAWWKVLGLY	failed
MIQMVKRVHIFDWHKEHARKIEEFAGWEMPIWYSSIKEEHLAVRNAVGIFDVSHMGEIVFRGKDALKFLQYVTTNDISKPPAISGTYTLVLNERGAIKDETLVFNMGNNEYLMICDSDAFEKLYAWFTYLKRTIEQFTKLDLEIELKTYDIAMFAVQGPKARDLAKDLFGIDINEMWWFQARWVELDGIKMLLSRSGYTGENGFEVYIEDANPYHPDESKRGEPEKALHVWERILEEGKKYGIKPCGLGARDTLRLEAGYTLYGNETKELQLLSTDIDEVTPLQANLEFAIYWDKDFIGKDALLKQKERGVGRKLVHFKMIDKGIPREGYKVYANGEMIGEVTSGTLSPLLNVGIGIAFVKEEYAKPGIEIEVEIRGQRKKAVTVTPPFYDPKKYGLFRET	not failed
MLMEIRESVKERIEEIIKEIAPQWEGEIELKETPDPKLGDFGTPIAFKLAKLLKRPPIEIAEKIVEKLKLNLPEGIKDVKAVNGYINVFIDYPHFARILINDILAKGDRFGSSEIGKGKKVIVEHTSVNPTKPLHMGHARNAILGDVMARILRFLGYEVEVQNYIDDLGIQFAQVYWGYLRLKEEFERIMNELRERGLKDNPIDHALGLLYVEVNRRLEDNPELENEIRDIMKKLESGELYGRKLAEEVVRAQMVTTYKLGVKYDLLVWESDIVRRKLFEIALELLSKNENFYIPSDGKYRGAFVMDLRKLFPDMKNPILVLRRSDGTATYTGKDIAYHLWKFGKIDVDLLYKEWDSTTWTTAPDGKSMPNKFGNANIVINVIGAEQKHPQLAIKYALQLLGFEDAAANLYHLAYEHVERPEGKFSGRKGTWVGFTVDEVIQEAVKRARELIEEKNPALSDEEKAEVAEKVGIGAIRYNLIKYSPDKKIIFRWEDVLNFEGESAPYIQYAHARCSSILRKAEEEGIKVDPETLFKNADFTKLSERERELVIMLSKFPRIVEQAGKDVKPHLIAWFANELASLFNKFYMDHPVLKAEEGVREARLLLVMAVEQVLKNALYLMGIEAPERM	not failed
MENEENSAREQEADDFLHIASVKEDWGGDGRGRMNLSGRRTAIAKEYLPRQYQFFDTNTVMEKQGWRVRGMPDNIAPGSRRLLTWHDSGASTSRVVLPPKFEAPSGIFTADLEIFVIKGAIQLGEWQLNKHSYSFIPAGVRIGSWKVLGGEEAEILWMENGSVPLEYKYAQEDHPDARLSDFIPALDSKLLPWGKADTVQFVQANKKWLRKDINGGGVWLLAILPHFDNKYQMIQPYNEEGYCLTGYCDVGDYRIVKDHYWYCPSFSTLPRHITDDGGLFFVRVDRDLSKVATVLSYAPQDT	not failed
MSSCCGPASPASSGPRTRRPRTATAQGDRHLFFAVYTIVPTDAYFGDAAVCFPPARPHMPIRRSLTIALFLLFPALGSGCQSTAPSTSSPSATEDAPAPLIVISIDGLRWDYLDRHEAPALSRIAEDGAHVDHLTPVFPTKTFPNHYSAVTGLYPSRHGIIANTMYDPAMDASFSLSDREAVMNPDWWGGEPIWVTAEQQGRTAATYFWPGSEAPVRGTRPTEWFEYDGSVPGTTRVDQALQWLDRPADTRPDLITLYFSRVDTKGHRHGPRSDSVATALREVDGFIQRLLDGLAARGLADAVNVMVTGDHGMSPTSRDRTIVLDDYIDPDDVRLTARNPVAMMEPRPGIPADSVVTALDQAPHLSAYRRGTLPDTLHFEGHRRIPSVIAVADDRWSIRTQAWMDENPDWTGGGTHGYDPRSENMHTLLAARGPGFRRNTTVDQLSLLHLYELMSALLDVEPAPNDGRLEAARPLLLPASARTAE	failed
